Measured values as given in doi:10.1101/723213.

Columns and labels:
[1] = biological target: CENP-A_(144-225)–H4 heterodimer (Drosophila melanogaster), Q9V6Q2; experiment: SEC-MALS; conditions: remark: other sources report otherwise
[2] = biological target: CENP-A_(101-225)–H4 heterodimer (Drosophila melanogaster), Q9V6Q2; experiment: SEC-MALS; conditions: remark: other sources report otherwise
CENP-A_(101-225)–H4 heterodimer (Drosophila melanogaster), Q9V6Q2, sequence (Q9V6Q2 101-225, one chain of several): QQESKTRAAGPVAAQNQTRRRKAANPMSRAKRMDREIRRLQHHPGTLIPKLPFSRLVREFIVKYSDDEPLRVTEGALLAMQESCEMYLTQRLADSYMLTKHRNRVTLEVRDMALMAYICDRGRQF

CENP-A_(144-225)–H4 heterodimer (Drosophila melanogaster), Q9V6Q2, sequence (Q9V6Q2 144-225, one chain of several): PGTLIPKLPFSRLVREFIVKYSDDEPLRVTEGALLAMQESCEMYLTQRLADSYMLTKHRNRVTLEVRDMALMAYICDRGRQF

stoichiometry N (CAL1 per CENP-A/H4 heterodimer) [1]: 1 | stoichiometry N (CAL1 per CENP-A/H4 heterodimer) [2]: 1
B1: His-CAL1_(1-160), Q9VEN2 1-160 (domain or fragment)
chain: MANAVVDEETLEAMVYERSKAWSSKMADFASLEDGMEIDVAEFDNLFHGEDEDPDLDDVAKEAVEDNVPDEAKLEMGHINATSVTELTLILCANEDNEAKAEIEEILNQTVPVVEEHKRKWREAGLDRILDTFDEKQIEHHVGRWMRRHNSVYLEASPPK
